# Numbering of substitutions follows the chain as printed.
# B1: C2G4 scFv protein (scFv)
# scFv: EVQLLESGGGLVQPGGSLRLSCAASGFTFSNYAMSWVRQAPGKGLEWVSGIPPDSGSKYYADSVRGRFTVSRDNSKNTLYLQMNSLRAEDTAVYYCAKNMLSFDYWGQGTLVTVSSGGGGSGGGGSGGGGSQSVLTQPPSASGTPGQRVTISCTGSSSNIGSNAVSWYQQLPGTAPKLLIYYNSKRPSGVPDRFSGSKSGTSASLAISGLRSEDEADYYCGSWDPSLNGYVFGGGTKVTVLG
# B2: MS501 scFv protein (scFv)
# scFv: EVQLLESGGGLVQPGGSLRLSCAASGFTFSNYAMSWVRQAPGKGLEWVSGIYPDSGSTYYADSVKGRFTISRDNSKNTLYLQMNSLRAEDTAVYYCARNIYTFDYWGQGTLVTVSSGGGGSGGGGSGGGGSQSVLTQPPSASGTPGQRVTISCSGSSSNIGSNAVSWYQQLPGTAPKLLIYYNNQRPSGVPDRFSGSKSGTSASLAISGLRSEDEADYYCGSWDSSLSGYVFGGGTKLTVLG
# B3: MS503 scFv protein (scFv)
# scFv: B2 scFv with G50S, D54G, S55D, R98K, I100A, Y101F, N184S, Q185H, S222T
# Target: mesothelin on MIA PaCa2-MSLN cells (mesothelin-overexpressing human pancreatic cancer cell line) (UniProt Q13421)
# Assay: flow cytometry: 1 µg scFv on 1x10^5 MIA PaCa2-MSLN cells, anti-6X His tag antibody detection
# UniProt Q13421, sequence (Q13421 other isoform, or with tags, fused parts or gaps limits assumed): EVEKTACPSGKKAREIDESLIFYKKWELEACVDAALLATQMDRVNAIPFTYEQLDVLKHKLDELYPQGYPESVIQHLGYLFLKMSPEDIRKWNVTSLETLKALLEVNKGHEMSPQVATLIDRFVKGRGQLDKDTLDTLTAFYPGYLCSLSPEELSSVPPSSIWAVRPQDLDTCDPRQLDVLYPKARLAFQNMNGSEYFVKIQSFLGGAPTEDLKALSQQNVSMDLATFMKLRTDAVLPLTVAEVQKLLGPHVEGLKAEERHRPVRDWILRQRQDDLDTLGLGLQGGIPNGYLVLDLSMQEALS
row,percent bound [%],Binder
1,> 68,B1
2,> 68,B2
3,> 68,B3

# Source: patent US20210347870A1
